Consider one protein from article PMC7049163 (Proceedings of the National Academy of Sciences of the …, 2020).

The series deals with the molecule itself. Put plainly: crystal structure.

B1: copper-containing nitrite reductase from Geobacillus thermodenitrificans (enzyme)
chain: ESKNKTAATQQSEPNVIAAHKGVNQAPVPLKMERVGPHDVHIEMTAQITDIEIDKGKIYKAWTFNGQAPGPLVVVNEGDTIHFTLKNMDPVVPHSMDFHAVHASPSKDFIDVMPNKSGTFTYPANKPGVFMYHCGTKPVLQHIANGMHGVIIVKPKNGYPTDKEVDREYVLIQNEWYKYNDMNDFQNGVPSYVVFSSKALKPGDPNTNGDTFTLKEKPLLAKVGEKIRLYINNVGPNEVSSFHVVGTVFDDVYLDGNPNNHLQGMQTVMLPASGGAVVEFTVTRPGTYPIVTHQFNHAQKGAVAMLKVTETGEDDGTETSGH
On to B1, for which the “stoichiometry N” value was found to be 3.

As usually defined, the stoichiometry N is a count of units in the complex or per binding partner.
